Results reported in publication doi:10.1101/2023.09.01.555900 (bioRxiv, 2023).

Biological target: Rho factor (E. coli transcription termination factor Rho) (E. coli, UniProt P0AG30 1-419)
Experiment: SEC

Chain of Rho factor (E. coli transcription termination factor Rho) (P0AG30 whole entry): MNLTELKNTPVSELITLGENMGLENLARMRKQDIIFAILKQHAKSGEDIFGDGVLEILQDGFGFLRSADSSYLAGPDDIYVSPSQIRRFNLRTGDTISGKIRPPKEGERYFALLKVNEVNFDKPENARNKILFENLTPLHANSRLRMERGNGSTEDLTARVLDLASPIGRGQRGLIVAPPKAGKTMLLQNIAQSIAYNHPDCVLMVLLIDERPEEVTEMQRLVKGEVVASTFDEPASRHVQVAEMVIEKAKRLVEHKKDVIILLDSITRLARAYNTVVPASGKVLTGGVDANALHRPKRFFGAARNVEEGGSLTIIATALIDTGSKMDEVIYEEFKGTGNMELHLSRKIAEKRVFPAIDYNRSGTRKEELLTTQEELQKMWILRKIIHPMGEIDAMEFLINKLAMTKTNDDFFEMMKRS

binding result: binds
B1: Rof (Rho-off, also called YaeO) (natural protein, E. coli)
chain: MNDTYQPINCDDYDNLELACQHHLMLTLELKDGEKLQAKASDLVSRKNVEYLVVEAAGETRELRLDKITSFSHPEIGTVVVSES
